Results: patent US20110144317A1, “MUTANTS OF GLYCOSIDE HYDROLASES AND USES THEREOF FOR SYNTHESIZING COMPLEX OLIGOSACCHARIDES AND DISACCHARIDE INTERMEDIATES” (priority 2008, published 2011)
Changes are numbered by the printed parent chain. In names and notes the source's numbering stands.

Columns and labels:
Assay type in all cases: biochemical
[1] = Screening of AS single mutant library for glucosylation of α-L-Rhap-OMe (HPLC); details: FIG. 6
Experimental: The protocol was established to enable the rapid identification of clones able to glucosylate α-L-Rhap-OMe (formula II). To obtain higher amounts of enzymes and facilitate detection of glucosylated compounds upon HPLC screening, mutants were produced in 96-DeepWell Format plates. Storage microplates containing monomutants were thawed and replicated to inoculate a starter culture in 96-well microplates containing, in each well, 150 μL LB medium supplemented with ampicillin (100 μg/mL). After growth for 24 h at 30° C. under agitation (200 rpm), plates were duplicated into 96-Deep Well plates containing, in each well, 1.1 mL LB medium supplemented with ampicillin (100 μg/mL) and IPTG (1 mM) to induce GST-AS expression. Cultures were then grown for 24 h at 30° C. under agitation (200 rpm). […]
Efficiency of the glucosylation reaction was evaluated by HPLC analysis of the acceptor reaction product synthesized when using α-L-Rhap-OMe as acceptor using a Dionex P 680 series pump, a Shodex RI 101 series refractometer, a Dionex UVD 340 UV/Vis detector and an autosampler HTC PAL. […]
For each of the 7 selected positions, 19 single mutants were generated (corresponding to each possible amino acid change). […] Both sucrose consumption and disaccharide formation were determined in order to calculate the glucosylation rate defined as the molar ratio of monoglucosylated acceptor versus/sucrose consumed.

[2] = Comparison of products synthesized by wild type and AS variant I228Y (HPAEC/HPLC); details: for recognition of α-L-RhapO-Me as an acceptor: purified enzyme, HPLC, FIG. 7A
Experimental: All assays were performed at 30° C. in 50 mM Tris buffer, pH=7.0.
Comparison of products synthesized by wild type and AS variant. Reactions were performed in the presence of 146 mM sucrose alone or supplemented with 146 mM acceptor. The purified wild-type or mutated GST/AS were employed at 0.5 U/mL. The reactions were stopped by heating at 95° C. for […]. The final mixture was centrifuged at 18 000 g for 5 min.
Soluble and insoluble oligosaccharides produced during the reaction were identified by HPAEC using a Dionex Carbo-Pack PA100 column at 30° C. Before analysis, the insoluble fraction was solubilised in KOH at a final total sugar concentration of 10 g/kg. Mobile phase (150 mM NaOH) was set at 1 mL/min flow rate with a sodium acetate gradient (going from 6 to 500 mM within 120 min). Detection was performed using a Dionex ED40 module with a gold working electrode and an Ag/AgCl pH reference. Note that α-L-Rhap-OMe (acceptor) and its derivatives are not oxidable products and thus are not detectable by HPAEC. Sucrose, glucose, fructose, α-L-Rhap-OMe (acceptor) and its derivatives (glucosylation products) were quantified by HPLC, as previously described.

[3] = Determination of kinetic parameters (catalytic efficiency) of ASNPwt and I228Y; details: for activation in the presence of α-L-RhapO-Me: increasing concentration of acceptor, FIG. 7D(b), 7E
Experimental: Catalytic efficiency (Eff=kcat/KM) of ASNPwt and I228Y variant were determined with both sucrose (D=Donor) and methyl α-L-rhamnopyranoside (A=Acceptor) as variable substrates. For the determination of the catalytic efficiency for D, A was held constant at 250 mM and D was varied between 0 and 600 mM. For the determination of the catalytic efficiency for A, D was held constant at 250 mM and A was varied between 0 and 500 mM. Experiments were performed until A and D solubility limits were reached. For each experiment, two distinct reaction velocities were determined: (1) the donor consumption determined by the release of fructose (called Vi (F)), corresponding to the overall kinetics of the different reactions described in FIG. 3 and (2) the acceptor glucosylation determined by the formation of α-D-Glcp-(1→3)-α-L-RhapOMe (called Vi(Dp2)), corresponding to the kinetics of the reaction of interest.
Initial velocities were fitted to the Michaelis-Menten equation using Sigma-Plot. As saturation was not achieved with the mutant, efficiency was calculated by linear regression analysis of the velocity versus substrate concentration plot. Aliquots (200 μL) were removed between 0 and 60 min (at which time product formation was still linear with respect to time), heated at 95° C. for 5 min and centrifuged at 18 000 g for 5 min. The final mixtures were filtered on a 0.22 μm membrane and analyzed using HPLC material previously described. HPLC analyses were performed using two columns: 1) a Biorad HPLC Carbohydrate Analysis column (HPX-87H column (300×7.8 mm)) maintained at 30° C., using ultra-pure water as eluent with a flow rate of 0.6 mL/min; 2) a reversed phase analytical column (Synergi C18RPFusion, 4 μm, 30×4.6 mm) kept at room temperature, with 1 ml/min of ultra-pure water as eluent. HPX-87H column was used to determine the released fructose by RI detection. C18RPfusion column was used to detect the formation of α-D-Glcp-(1→3)-α-L-RhapOMe.

[4] = Enzymatic glucosylation of L-Rhap by 1G5A mutants; details: sucrose donor and L-Rhap acceptor 1:1, 146 mM
Experimental: (§1) The enzymatic reaction was carried out using sucrose as donor and rhamnose derivative as acceptor in a 1:1 ratio (146 mM for L-Rhap, 50 mM for α-L-Rhap-OAll).
(§2) Efficiency of the glucosylation reaction was evaluated by HPLC analysis of the acceptor reaction product synthesized using a reversed phase analytical column (Synergi C18RPFusion, 4 μm, 30×4.6 mm) (when testing L-Rhap) and a Biorad HPLC Carbohydrate Analysis column (HPX-87K column (300×7.8 mm)) when testing α-L-Rhap-OAll. (cf. Example 1/Materials and Methods/Screening of mutant library)

[5] = Enzymatic glucosylation of α-L-Rhap-OAll by 1G5A mutants; details: sucrose donor and α-L-Rhap-OAll acceptor 1:1, 50 mM
Experimental: as §1, §2

[6] = 146 mM sucrose supplemented with 146 mM acceptor

B1: wild type AS: Wild type glycoside hydrolase: amylosucrase (ASNPwt) 1G5A of sequence SEQ ID NO: 13, from Neisseria polysaccharea (protein, listed as Neisseria polysaccharea)
chain: SPNSQYLKTRILDIYTPEQRAGIEKSEDWRQFSRRMDTHFPKLMNELDSVYGNNEALLPMLEMLLAQAWQSYSQRNSSLKDIDIARENNPDWILSNKQVGGVCYVDLFAGDLKGLKDKIPYFQELGLTYLHLMPLFKCPEGKSDGGYAVSSYRDVNPALGTIGDLREVIAALHEAGISAVVDFIFNHTSNEHEWAQRCAAGDPLFDNFYYIFPDRRMPDQYDRTLREIFPDQHPGGFSQLEDGRWVWTTFNSFQWDLNYSNPWVFRAMAGEMLFLANLGVDILRMDAVAFIWKQMGTSCENLPQAHALIRAFNAVMRIAAPAVFFKSEAIVHPDQVVQYIGQDECQIGYNPLQMALLWNTLATREVNLLHQALTYRHNLPEHTAWVNYVRSHDDIGWTFADEDAAYLGISGYDHRQFLNRFFVNRFDGSFARGVPFQYNPSTGDCRVSGTAAALVGLAQDDPHAVDRIKLLYSIALSTGGLPLIYLGDEVGTLNDDDWSQDSNKSDDSRWAHRPRYNEALYAQRNDPSTAAGQIYQDLRHMIAVRQSNPRFDGGRLVTFNTNNKHIIGYIRNNALLAFGNFSEYPQTVTAHTLQAMPFKAHDLIGGKTVSLNQDLTLQPYQVMWLEIA
- recognition of α-L-Rhap-OMe as acceptor / ability to form the desired disaccharide [1]: does not recognize the α-L-RhapO-Me as an acceptor
- effect of the presence of α-L-RhapO-Me in the reaction medium on the product profile [2, 6]: does not affect the product profile
- recognition of α-L-RhapO-Me as an acceptor [2, 6]: does not recognize at all α-L-RhapO-Me as an acceptor
- activation in the presence of α-L-RhapO-Me [3]: no activation
- catalytic efficiency ([3]; sucrose constant 250 mM, varied acceptor concentration): null catalytic efficiency
- Vi(Dp2) (acceptor glucosylation velocity) ([3]; sucrose constant 250 mM, varied acceptor concentration, FIG. 7E): 0
- glucosylation of L-rhamnose with α-(1→3) linkage [4]: lacks this newly described specific activity
- ability to glucosylate α-L-Rhap-OAll [5]: lacks this newly described specific activity

B2: I228Y: 1G5A (N. polysaccharea amylosucrase, SEQ ID NO: 13) single mutant, isoleucine 228 replaced by tyrosine (protein, listed as Neisseria polysaccharea)
chain: B1 chain with I228Y
- recognition of α-L-RhapO-Me as an acceptor [2, 6]: recognizes α-L-RhapO-Me as an acceptor to form in majority a Dp2
- major reaction occurring ([2]; sole presence of sucrose): Hydrolysis
- highest Dp observed (maltooligosaccharide chains) ([2]; sole presence of sucrose, 146 mM, FIG. 7B): 5
- activation in the presence of α-L-RhapO-Me [3]: clear activation
- glucosylation of L-rhamnose with α-(1→3) linkage [4]: observed for all mutants except I228Y
